Data as given in doi:10.1101/2025.11.07.687251, “Reconstitution of multistep recruitment of ULK1 to membranes in autophagy” (bioRxiv, 2025).

T1: mcherry-ATG13(1–230)/TSF-ATG101 (human, UniProt O75143 1-230; Q9BSB4 1-218)
T1 construct: ATG13, human; ATG101, human, wild type; TSF-tagged proteins in general were purified on Strep-Tactin Sepharose; also called mCherry-ATG13^HD:TSF-ATG101; mCherry-ATG13^HD:ATG101; not shown: mCherry, N-terminal, kept
T1 sequence (looked up) 1: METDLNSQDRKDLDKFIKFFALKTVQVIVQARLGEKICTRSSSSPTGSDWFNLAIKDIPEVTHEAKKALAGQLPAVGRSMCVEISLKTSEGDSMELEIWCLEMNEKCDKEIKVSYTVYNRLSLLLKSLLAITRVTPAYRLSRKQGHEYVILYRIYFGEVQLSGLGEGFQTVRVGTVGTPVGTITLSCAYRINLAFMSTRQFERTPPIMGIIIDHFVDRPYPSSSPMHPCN
T1 sequence (looked up) 2: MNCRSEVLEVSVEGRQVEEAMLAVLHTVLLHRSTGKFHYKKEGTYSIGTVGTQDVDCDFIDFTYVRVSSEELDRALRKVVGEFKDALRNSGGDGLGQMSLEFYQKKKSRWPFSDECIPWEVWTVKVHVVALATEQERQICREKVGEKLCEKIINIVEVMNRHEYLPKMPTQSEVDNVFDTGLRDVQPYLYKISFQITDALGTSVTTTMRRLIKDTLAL

T2: MBP-mCherry-ULK1(291–828) (human, UniProt O75385 291-828)
T2 construct: ULK1, human, intrinsically disordered region, residues 291-828 (no kinase domain, no EAT domain); also called mCherry-ULK1 ^ΔKDΔEAT (291–828); ULK1 IDR; source: purified (amylose resin); not shown: mCherry, N-terminal, kept
T2 sequence (looked up): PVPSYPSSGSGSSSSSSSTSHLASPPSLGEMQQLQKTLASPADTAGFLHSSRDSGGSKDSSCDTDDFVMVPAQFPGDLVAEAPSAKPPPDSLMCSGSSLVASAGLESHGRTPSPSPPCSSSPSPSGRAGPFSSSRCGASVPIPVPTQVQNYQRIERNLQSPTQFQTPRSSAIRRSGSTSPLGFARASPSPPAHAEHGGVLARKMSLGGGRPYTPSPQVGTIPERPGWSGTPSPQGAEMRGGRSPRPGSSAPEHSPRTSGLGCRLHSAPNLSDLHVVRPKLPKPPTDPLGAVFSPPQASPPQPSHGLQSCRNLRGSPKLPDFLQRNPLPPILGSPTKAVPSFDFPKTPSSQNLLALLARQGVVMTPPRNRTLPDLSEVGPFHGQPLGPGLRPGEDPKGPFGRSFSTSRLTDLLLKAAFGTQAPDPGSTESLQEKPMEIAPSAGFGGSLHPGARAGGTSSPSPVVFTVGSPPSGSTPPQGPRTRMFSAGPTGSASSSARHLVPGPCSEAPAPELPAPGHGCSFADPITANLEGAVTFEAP


Key:
[1] = target: T1, mcherry-ATG13(1–230)/TSF-ATG101; experiment: pull-down; microscopy-based bead assay (Fig. 5e): GST-GFP-ULK1(415–464) (WT or ADA) as bait on GSH beads; mcherry-ATG13(1–230)/TSF-ATG101 as prey; mCherry channel quantified; details: both partners purified
[2] = target: T2, MBP-mCherry-ULK1(291–828); experiment: pull-down; microscopy-based bead assay (Fig. S3): GST-ATG13(6–196)/ATG101 as bait on GSH beads; MBP-mCherry-ULK1 fragments added separately; mCherry on the beads imaged; details: both partners purified

| binding result [1] | binding result [2] | Binder |
| --- | --- | --- |
| binds |  | SGRAGPFSSSRCGASVPIPVPTQVQNYQRIERNLQSPTQFQTPRSSAIRR (domain or fragment, human, UniProt O75385 415-464, looked up, ULK1, human, IDR fragment with the PVP motif, residues 415-464; GST-tagged proteins in general were purified on GSH resin; also called GST-tagged fragment of the ULK1 IDR encompassing residues 415–464; not shown: GST, N-terminal, kept; GFP, N-terminal, kept) [GST-GFP-ULK1(415–464)] |
|  | binds | GST-ATG13(6–196)/ATG101 (complex, human, ATG101, human, wild type; no tag is named; also called GST-ATG13^HD:ATG101; ATG13^HD:ATG101; source: HEK293T-GNTI- cells, transfected (PEI), purified (GSH resin, S200 SEC); not shown: GST, N-terminal, kept) chain 1: NSQDRKDLDKFIKFFALKTVQVIVQARLGEKICTRSSSSPTGSDWFNLAIKDIPEVTHEAKKALAGQLPAVGRSMCVEISLKTSEGDSMELEIWCLEMNEKCDKEIKVSYTVYNRLSLLLKSLLAITRVTPAYRLSRKQGHEYVILYRIYFGEVQLSGLGEGFQTVRVGTVGTPVGTITLSCAYRINLAFM chain 2: MNCRSEVLEVSVEGRQVEEAMLAVLHTVLLHRSTGKFHYKKEGTYSIGTVGTQDVDCDFIDFTYVRVSSEELDRALRKVVGEFKDALRNSGGDGLGQMSLEFYQKKKSRWPFSDECIPWEVWTVKVHVVALATEQERQICREKVGEKLCEKIINIVEVMNRHEYLPKMPTQSEVDNVFDTGLRDVQPYLYKISFQITDALGTSVTTTMRRLIKDTLAL |
